Assay [1] addresses IRE1α LD 352LNYL355-GSGS mutant (human) (UniProt O75460). In words: AUC; sedimentation velocity (AUC-SV), 25 µM protein.
Assay [2] deals with mCherry-IRE1α LD-10His (human) (UniProt O75460). In words: mass photometry; protein tethered by C-terminal 10His to supported lipid bilayers (99 mol% POPC, 1 mol% Ni-NTA lipids); 75 nM protein; 25 mM HEPES pH 7.3, 150 mM NaCl, 250 µM TCEP.
The target is the same in assay [3]. In words: mass photometry; protein tethered by C-terminal 10His to supported lipid bilayers (99 mol% POPC, 1 mol% Ni-NTA lipids); 100 nM protein; 25 mM HEPES pH 7.3, 150 mM NaCl, 250 µM TCEP.
Assay [4] has as its target IRE1α LD 312TLPL315-GSGS mutant (human) (UniProt O75460). Kind of assay: AUC; sedimentation velocity (AUC-SV), 25 µM protein.
Assay [5] has as its target mCherry-IRE1α LD 352LNYL355-GSGS-10His (human) (UniProt O75460). Kind of assay: mass photometry; protein tethered by C-terminal 10His to supported lipid bilayers (99 mol% POPC, 1 mol% Ni-NTA lipids); 75 nM protein; 25 mM HEPES pH 7.3, 150 mM NaCl, 250 µM TCEP.
Assay [6] has the same target. Kind of assay: mass photometry; protein tethered by C-terminal 10His to supported lipid bilayers (99 mol% POPC, 1 mol% Ni-NTA lipids); 100 nM protein; 25 mM HEPES pH 7.3, 150 mM NaCl, 250 µM TCEP.
For assay [7], the target named is mCherry-IRE1α LD 312TLPL315-GSGS-10His (human) (UniProt O75460). Kind of assay: mass photometry; protein tethered by C-terminal 10His to supported lipid bilayers (99 mol% POPC, 1 mol% Ni-NTA lipids); 75 nM protein; 25 mM HEPES pH 7.3, 150 mM NaCl, 250 µM TCEP.
The target is the same in assay [8]. In words: mass photometry; protein tethered by C-terminal 10His to supported lipid bilayers (99 mol% POPC, 1 mol% Ni-NTA lipids); 100 nM protein; 25 mM HEPES pH 7.3, 150 mM NaCl, 250 µM TCEP.
In assay [9] the target is human IRE1α lumenal domain (IRE1α LD, aa 24-443) (human) (UniProt O75460). In words: fluorescence polarisation; fluorescence anisotropy of N-terminal fluorescein labeled peptide with IRE1α LD; n = 2 independent experiments. On the technique in general: Fluorescence polarisation rises when a labelled molecule tumbles more slowly, as on binding a larger partner.

Chain of UniProt O75460 (O75460 24-443): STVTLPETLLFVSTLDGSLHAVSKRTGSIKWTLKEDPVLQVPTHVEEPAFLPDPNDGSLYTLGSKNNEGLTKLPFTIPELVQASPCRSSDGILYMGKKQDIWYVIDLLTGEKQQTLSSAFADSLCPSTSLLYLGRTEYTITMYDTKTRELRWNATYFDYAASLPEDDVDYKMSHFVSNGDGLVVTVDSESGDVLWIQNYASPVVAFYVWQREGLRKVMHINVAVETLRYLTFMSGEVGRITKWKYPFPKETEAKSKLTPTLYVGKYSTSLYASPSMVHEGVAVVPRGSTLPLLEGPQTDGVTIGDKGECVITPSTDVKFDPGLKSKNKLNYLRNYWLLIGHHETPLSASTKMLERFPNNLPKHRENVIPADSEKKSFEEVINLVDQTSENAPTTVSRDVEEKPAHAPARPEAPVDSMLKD

On to “IRE1α LD 352LNYL355-GSGS mutant (from UniProt O75460 24-443) (domain or fragment)”, for which the stoichiometry N in assay [1] worked out at 2.

On to “mCherry-IRE1α LD-10His (from UniProt O75460 24-443) (domain or fragment)”, for which the stoichiometry N in assay [2] and in assay [3] was 2 in each case. Substance “IRE1α LD 312TLPL315-GSGS mutant (from UniProt O75460 24-443) (domain or fragment)” gave a stoichiometry N in assay [4] of 2. Consider “mCherry-IRE1α LD 352LNYL355-GSGS-10His (from UniProt O75460 24-443) (domain or fragment)”, for which the stoichiometry N in assay [5] and in assay [6] was 2 in each case. Take “mCherry-IRE1α LD 312TLPL315-GSGS-10His (from UniProt O75460 24-443) (domain or fragment)”: the stoichiometry N in [7] and in [8] was 2 in each case. In assay [9], “MPZ1N-2X, model unfolded polypeptide (two MPZ1N 12mers in tandem), N-terminal fluorescein labeled” yielded a dissociation constant (Kd) of 2 µM.

In general, stoichiometry N refers to a count of units in the complex or per binding partner. As usually defined, the Kd is the concentration at which binding is half-saturated. A low value points to higher affinity.

The values above are taken from PMC11480506.
